This is an account of results in PMC3593212, “Sequence-Specific, RNA–Protein Interactions Overcome Electrostatic Barriers Preventing Assembly of Satellite Tobacco Necrosis Virus Coat Protein” (Journal of Molecular Biology, 2013).

In data set [1] the target is T1, STNV-1 coat protein (CP) (Satellite tobacco necrosis virus 1 …, UniProt P03606 1-196).
T1 sequence: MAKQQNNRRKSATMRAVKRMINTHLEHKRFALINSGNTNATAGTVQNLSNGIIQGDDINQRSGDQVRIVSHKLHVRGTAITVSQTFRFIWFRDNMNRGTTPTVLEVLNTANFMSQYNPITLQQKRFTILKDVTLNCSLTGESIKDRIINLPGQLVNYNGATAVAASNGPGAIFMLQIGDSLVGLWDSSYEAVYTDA
Kind of data set: analytical ultracentrifugation (capsid reassembly); assembly more efficient than B3; Reassembly buffer, salt, pH and temperature not in the material (capsid assembly depends on calcium and pH); short RNAs at molar ratios incl. 1:1 and 2.5:1; CP. The settings on record: protein: recombinant; hairpin, 4-nt loop ACAA.

In data set [2] the target is T1, STNV-1 coat protein (CP). Kind of data set: analytical ultracentrifugation (capsid reassembly); heterologous RNA; triggers capsid assembly; Reassembly buffer, salt, pH and temperature not in the material (capsid assembly depends on calcium and pH); short RNAs at molar ratios incl. 1:1 and 2.5:1; CP. To be noted: protein: recombinant; hairpin, loop AUUA.
Data set [3] addresses T1, STNV-1 coat protein (CP). Description: analytical ultracentrifugation (capsid reassembly), TEM; VLPs form even at lowest molar ratio; 28 S and ~42 S species at 1:1; Reassembly buffer, salt, pH and temperature not in the material (capsid assembly depends on calcium and pH); short RNAs at molar ratios incl. 1:1 and 2.5:1; CP. To be noted: protein: recombinant; hairpin, 4-nt loop ACAA.

Data set [4] deals with the molecule itself. Kind of data set: crystal structure; VLP reassembled from purified CP with B3 RNA aptamer (5:1 w/w CP:RNA) in 50 mM Hepes, 3 mM CaCl2, pH 7.5, purified by SEC; crystals in 50 mM phosphate pH 6.2-6.8, 0.2-0.8% PEG 6000, 0-1 mM MgCl2, 25 °C; strict 60-fold NCS.

CGUGCAACAAUGCACG (structured_RNA) [B3 short]: the binding result in data set [1] is reported as “binds”.

For the molecule ACAUGAGGAUUACCCAUGU (structured_RNA) [MS2 TR], in data set [2], the binding result is “binds”.

Take CCUUUUCAAGACAUGCAACAAUGCACACAG (structured_RNA) [B3 aptamer]: the binding result in data set [3] is “binds”.

B1: satellite tobacco necrosis virus (STNV-1) coat protein (natural protein)
chain: MAKQQNNRRKSATMRAVKRMINTHLEHKRFALINSGNTNATAGTVQNLSNGIIQGDDINQRSGDQVRIVSHKLHVRGTAITVSQTFRFIWFRDNMNRGTTPTVLEVLNTANFMSQYNPITLQQKRFTILKDVTLNCSLTGESIKDRIINLPGQLVNYNGATAVAASNGPGAIFMLQIGDSLVGLWDSSYEAVYTDA
notes: coat protein of satellite tobacco necrosis virus strain 1 (STNV-1), recombinant version expressed from a synthetic gene; In the T = 1 capsid the chain stands 60 times; all assembly here was done with RNA present; also called STNV CP; CP; source: E. coli (synthetic gene); recombinant VLPs purified, disassembled in 50 mM Hepes, 10 mM EDTA, pH 8.5; CP separated from the mRNA by Q-Sepharose FF and SP …
As for B1, in data set [4], the “stoichiometry N” value came out at 60.
